From patent US20220396782

Test system: variant Cas12i2 (RNP, exact variant not stated in Examples 1-5)
Test: cell_activity
Settings: HEK293T RNP 10 uM, 3 days

AGAAAUCCGUCUUUCAUUGACGGAGGUCCACUGGAGGAGAAGU / AGGTCCACTGGAGGAGAAGT / ACTTCTCCTCCAGTGGACCT [E4T6 Cas12i2 crRNA ; TTR E4T6 target]
activity (PAM 5'-TTN (CTTC)): > 80 % indels

AGAAAUCCGUCUUUCAUUGACGGGUAUAUCCCUUCUACAAAUU / GTATATCCCTTCTACAAATT / AATTTGTAGAAGGGATATAC [E3T3 Cas12i2 crRNA ; TTR E3T3 target]
activity (PAM 5'-TTN (CTTT)): > 80 % indels

AGAAAUCCGUCUUUCAUUGACGGUAGAUGCUGUCCGAGGCAGU / TAGATGCTGTCCGAGGCAGT / ACTGCCTCGGACAGCATCTA [E2T3 Cas12i2 crRNA ; TTR E2T3 target]
activity (PAM 5'-TTN (GTTC)): > 80 % indels
